In patent publication US20220025008A1 (FAPON BIOTECH, published 2022):

T1: Recombinant NT antigen (N-terminal pro-brain natriuretic peptide, NT-proBNP) (human, UniProt P16860 27-102)
T1 construct: domain: N-terminal pro-brain natriuretic peptide (NT-proBNP); also called recombinant NT protein; N-terminal pro-B-type natriuretic peptide
T1 sequence (looked up): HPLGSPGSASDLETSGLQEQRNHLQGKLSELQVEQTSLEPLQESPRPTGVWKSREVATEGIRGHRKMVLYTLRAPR


Target: T1, Recombinant NT antigen (N-terminal …)
Test: indirect ELISA, KD calculated from half-max OD at 4 coating concentrations
Procedure: Recombinant NT antigen was diluted with coating solution to 1 μg/ml a microplate overnight at 4° C.; which was washed twice with washing solution and patted dry on the next day; with addition of blocking solution (20% BSA+80% PBS) at 120 μL per well at 37° C. for 1 h and patted dry; added the diluted NT monoclonal antibody, 100 μL/well at 37° C. for 30 min (partial supernatant for 1 h); washed 5 times with washing solution and patted dry; added rabbit anti-goat IgG-HRP […] per well at 37° C. for 30 min; washed 5 times with washing solution and patted dry; added color developing solution A (50 μL/well), added color developing solution B (50 μL/well) for 10 min; added stop solution, 50 μL/well; followed by reading the OD value at 450 nm (reference 630 nm) on the microplate reader.
Data from the enzyme immunoassay indirect method were analyzed in the same way as the activity identification, with four gradients of 3 μg/ml, 1.5 μg/ml, 0.75 μg/ml and 0.375 μg/ml for coating; the antibody was diluted from 1000 ng/ml by 2 times to 0.977 ng/ml for loading sample. OD values corresponding to different antibody concentrations at different coating concentrations were obtained. Under the same coating concentration, data were plotted logarithmically with the antibody concentration as the abscissa and the OD value as the ordinate.

Kd | Binder
2.09 nM | Mutation 1-13 (antibody) heavy: QVRLQESGPSQVKPAQTLSLTCAISGFSLTTYYLDWVRHTPGKPPEWLAQMTKDGNAVHNPTIRSRLSITRDTSKSQVFLKLTGVTTEDTAVYYCVRGIIDFGPGLLVTVSSASTTPPKVYPLTSCCGDTSSSIVTLGCLVSSYMPEPVTVTWNSGALTSGVHTFPAILQSSGLYSLSSVVTVPASTSGAQTFICNVAHPASSTKVDKRVEPGCPDPCKHCRCPPPELPGGPSVFIFPPKPKDTLTISGTPEVTCVVVDVGQDDPEVQFSWFVDNVEVRTARTKPREEQFNSTFRVVSALPIQHQDWTGGKEFKCKVHNEGLPAPIVRTISRTKGQAREPQVYVLAPPQEELSKSTLSVTCLVTGFYPDYIAVEWQKNGQPESEDKYGTTTSQLDADGSYFLYSRLRVDKNSWQEGDTYACVVMHEALHNHYTQKSISKPPGK light: QAVLTQPSSVSRSLGQTVSITCSGSSDQVGFGDYLNWFQLIPGSAPKTLIFGAYSRLRGVPDRFSGSRSGNTATLTINSLQAEDEADYYCGSPNSRNYVFGSGTRLTVLSQPKSAPSVTLFPPSKEELDTNKATVVCLISDFYPGSVNVVWKADGSTINQNVKTTQASKQSNSKYAASSYLTLTGSEWKSKSSYTCEVTHEGSTVTKTVKPSECS
2.07 nM | Mutation 1-22 (antibody, V domains shown) VH: QVRLQESGPSQVKPAQTLSLTCAISGFSLTTYYLDWVRHTPGKPPEWLAQMTKDGNAVHNPTIRSRLSITRDTSKSQVFLKLTGVTTEDTAVYYCVRGVIDWGPGLLVTVSS VL: QAVLTQPSSVSRSLGQTVSITCSGSSDQVGFGDYLNWFQLIPGSAPKTLIFGAYSRLRGVPDRFSGSRSGNTATLTINSLQAEDEADYYCGSANSRNYVFGSGTRLTVLS
1.76 nM | Mutation 1-15 (antibody) heavy: QVRLQESGPSQVKPAQTLSLTCAISGFSVTTYYIDWVRHTPGKPPEWLAQMTKDGNAVHNPTLRSRLSITRDTSKSQVFLKLTGVTTEDTAVYYCVRGLIDFGPGLLVTVSSASTTPPKVYPLTSCCGDTSSSIVTLGCLVSSYMPEPVTVTWNSGALTSGVHTFPAILQSSGLYSLSSVVTVPASTSGAQTFICNVAHPASSTKVDKRVEPGCPDPCKHCRCPPPELPGGPSVFIFPPKPKDTLTISGTPEVTCVVVDVGQDDPEVQFSWFVDNVEVRTARTKPREEQFNSTFRVVSALPIQHQDWTGGKEFKCKVHNEGLPAPIVRTISRTKGQAREPQVYVLAPPQEELSKSTLSVTCLVTGFYPDYIAVEWQKNGQPESEDKYGTTTSQLDADGSYFLYSRLRVDKNSWQEGDTYACVVMHEALHNHYTQKSISKPPGK light: QAVLTQPSSVSRSLGQTVSITCSGSSDNVGFGDYVNWFQLIPGSAPKTLIFGATSRIRGVPDRFSGSRSGNTATLTINSLQAEDEADYYCGSANSRNYVFGSGTRLTVLSQPKSAPSVTLFPPSKEELDTNKATVVCLISDFYPGSVNVVWKADGSTINQNVKTTQASKQSNSKYAASSYLTLTGSEWKSKSSYTCEVTHEGSTVTKTVKPSECS
2.16 nM | Mutation 1-25 (antibody) heavy: QVRLQESGPSQVKPAQTLSLTCAISGFSVTTYYLDWVRHTPGKPPEWLAQMTKDGNAVHNPTIRSRLSITRDTSKSQVFLKLTGVTTEDTAVYYCVRGIIDFGPGLLVTVSSASTTPPKVYPLTSCCGDTSSSIVTLGCLVSSYMPEPVTVTWNSGALTSGVHTFPAILQSSGLYSLSSVVTVPASTSGAQTFICNVAHPASSTKVDKRVEPGCPDPCKHCRCPPPELPGGPSVFIFPPKPKDTLTISGTPEVTCVVVDVGQDDPEVQFSWFVDNVEVRTARTKPREEQFNSTFRVVSALPIQHQDWTGGKEFKCKVHNEGLPAPIVRTISRTKGQAREPQVYVLAPPQEELSKSTLSVTCLVTGFYPDYIAVEWQKNGQPESEDKYGTTTSQLDADGSYFLYSRLRVDKNSWQEGDTYACVVMHEALHNHYTQKSISKPPGK light: QAVLTQPSSVSRSLGQTVSITCSGSSDQVGFGDYLNWFQLIPGSAPKTLIFGASSRLRGVPDRFSGSRSGNTATLTINSLQAEDEADYYCGSPNSRNYVFGSGTRLTVLSQPKSAPSVTLFPPSKEELDTNKATVVCLISDFYPGSVNVVWKADGSTINQNVKTTQASKQSNSKYAASSYLTLTGSEWKSKSSYTCEVTHEGSTVTKTVKPSECS

Further lines, the binder ahead of its results:

Binder | Kd
WT 1-5 (antibody) heavy: QVRLQESGPSQVKPAQTLSLTCAISGPSLTTYYLDWVRHTPGKPPEWLAQMTKDANAVHNPTVRSRLSITRDTSKSQVFLKLTGVTTEDTAVYYCVKGLIDFGPGLLVTVSSASTTPPKVYPLTSCCGDTSSSIVTLGCLVSSYMPEPVTVTWNSGALTSGVHTFPAILQSSGLYSLSSVVTVPASTSGAQTFICNVAHPASSTKVDKRVEPGCPDPCKHCRCPPPELPGGPSVFIFPPKPKDTLTISGTPEVTCVVVDVGQDDPEVQFSWFVDNVEVRTARTKPREEQFNSTFRVVSALPIQHQDWTGGKEFKCKVHNEGLPAPIVRTISRTKGQAREPQVYVLAPPQEELSKSTLSVTCLVTGFYPDYIAVEWQKNGQPESEDKYGTTTSQLDADGSYFLYSRLRVDKNSWQEGDTYACVVMHEALHNHYTQKSISKPPGK light: QAVLTQPSSVSRSLGQTVSITCSGSSDQVGPGDYLNWFQLIPGSAPKTLIFAASSRIRGVPDRFSGSRSGNTATLTINSLQAEDEADYYCGSANSRNYVWGSGTRLTVLSQPKSAPSVTLFPPSKEELDTNKATVVCLISDFYPGSVNVVWKADGSTINQNVKTTQASKQSNSKYAASSYLTLTGSEWKSKSSYTCEVTHEGSTVTKTVKPSECS | 22.6 nM
Mutation 1-7 (antibody) heavy: QVRLQESGPSQVKPAQTLSLTCAISGFSVTTYYLDWVRHTPGKPPEWLAQMTKDGNAVHQPTVRSRLSITRDTSKSQVFLKLTGVTTEDTAVYYCVRGIIDFGPGLLVTVSSASTTPPKVYPLTSCCGDTSSSIVTLGCLVSSYMPEPVTVTWNSGALTSGVHTFPAILQSSGLYSLSSVVTVPASTSGAQTFICNVAHPASSTKVDKRVEPGCPDPCKHCRCPPPELPGGPSVFIFPPKPKDTLTISGTPEVTCVVVDVGQDDPEVQFSWFVDNVEVRTARTKPREEQFNSTFRVVSALPIQHQDWTGGKEFKCKVHNEGLPAPIVRTISRTKGQAREPQVYVLAPPQEELSKSTLSVTCLVTGFYPDYIAVEWQKNGQPESEDKYGTTTSQLDADGSYFLYSRLRVDKNSWQEGDTYACVVMHEALHNHYTQKSISKPPGK light: QAVLTQPSSVSRSLGQTVSITCSGSSDNVGFGDYLNWFQLIPGSAPKTLIFGASSRLRGVPDRFSGSRSGNTATLTINSLQAEDEADYYCGSGNSRNYVFGSGTRLTVLSQPKSAPSVTLFPPSKEELDTNKATVVCLISDFYPGSVNVVWKADGSTINQNVKTTQASKQSNSKYAASSYLTLTGSEWKSKSSYTCEVTHEGSTVTKTVKPSECS | 1.53 nM
Mutation 1-3 (antibody) heavy: QVRLQESGPSQVKPAQTLSLTCAISGFSLTTYYIDWVRHTPGKPPEWLAQMTKDGNAVHNPTLRSRLSITRDTSKSQVFLKLTGVTTEDTAVYYCVRGLIDFGPGLLVTVSSASTTPPKVYPLTSCCGDTSSSIVTLGCLVSSYMPEPVTVTWNSGALTSGVHTFPAILQSSGLYSLSSVVTVPASTSGAQTFICNVAHPASSTKVDKRVEPGCPDPCKHCRCPPPELPGGPSVFIFPPKPKDTLTISGTPEVTCVVVDVGQDDPEVQFSWFVDNVEVRTARTKPREEQFNSTFRVVSALPIQHQDWTGGKEFKCKVHNEGLPAPIVRTISRTKGQAREPQVYVLAPPQEELSKSTLSVTCLVTGFYPDYIAVEWQKNGQPESEDKYGTTTSQLDADGSYFLYSRLRVDKNSWQEGDTYACVVMHEALHNHYTQKSISKPPGK light: QAVLTQPSSVSRSLGQTVSITCSGSSDNVGFGDYVNWFQLIPGSAPKTLIFGAYSRIRGVPDRFSGSRSGNTATLTINSLQAEDEADYYCGSANSRNYVFGSGTRLTVLSQPKSAPSVTLFPPSKEELDTNKATVVCLISDFYPGSVNVVWKADGSTINQNVKTTQASKQSNSKYAASSYLTLTGSEWKSKSSYTCEVTHEGSTVTKTVKPSECS | 1.52 nM
Mutation 1-1 (antibody) heavy: QVRLQESGPSQVKPAQTLSLTCAISGFSITTYYLDWVRHTPGKPPEWLAQMTKDGNAVHNPTIRSRLSITRDTSKSQVFLKLTGVTTEDTAVYYCVRGIIDFGPGLLVTVSSASTTPPKVYPLTSCCGDTSSSIVTLGCLVSSYMPEPVTVTWNSGALTSGVHTFPAILQSSGLYSLSSVVTVPASTSGAQTFICNVAHPASSTKVDKRVEPGCPDPCKHCRCPPPELPGGPSVFIFPPKPKDTLTISGTPEVTCVVVDVGQDDPEVQFSWFVDNVEVRTARTKPREEQFNSTFRVVSALPIQHQDWTGGKEFKCKVHNEGLPAPIVRTISRTKGQAREPQVYVLAPPQEELSKSTLSVTCLVTGFYPDYIAVEWQKNGQPESEDKYGTTTSQLDADGSYFLYSRLRVDKNSWQEGDTYACVVMHEALHNHYTQKSISKPPGK light: QAVLTQPSSVSRSLGQTVSITCSGSSDQVGFGDYLNWFQLIPGSAPKTLIFGATSRLRGVPDRFSGSRSGNTATLTINSLQAEDEADYYCGSPNSRNYVFGSGTRLTVLSQPKSAPSVTLFPPSKEELDTNKATVVCLISDFYPGSVNVVWKADGSTINQNVKTTQASKQSNSKYAASSYLTLTGSEWKSKSSYTCEVTHEGSTVTKTVKPSECS | 2.51 nM
Mutation 1-10 (antibody, V domains shown) VH: QVRLQESGPSQVKPAQTLSLTCAISGFSITTYYLDWVRHTPGKPPEWLAQMTKDGNAVHNPTIRSRLSITRDTSKSQVFLKLTGVTTEDTAVYYCVRGVIDWGPGLLVTVSS VL: QAVLTQPSSVSRSLGQTVSITCSGSSDQVGFGDYLNWFQLIPGSAPKTLIFGASSRLRGVPDRFSGSRSGNTATLTINSLQAEDEADYYCGSANSRNYVFGSGTRLTVLS | 3.2 nM
Mutation 1 (antibody, V domains shown, also called mutant 1 antibody) VH: QVRLQESGPSQVKPAQTLSLTCAISGFSITTYYIDWVRHTPGKPPEWLAQMTKDGNAVHQPTIRSRLSITRDTSKSQVFLKLTGVTTEDTAVYYCVRGIIDWGPGLLVTVSS VL: QAVLTQPSSVSRSLGQTVSITCSGSSDQVGFGDYVNWFQLIPGSAPKTLIFGATSRIRGVPDRFSGSRSGNTATLTINSLQAEDEADYYCGSPNSRGGYVFGSGTRLTVLS | 1.73 nM
